From article PMC4872099 (Nucleic Acids Research, 2016) come the findings set out here.

In data set [1] the target is phage T4 gp16 oligomerization domain alone (N- and C-terminal domains deleted) (bacteriophage T4). The experiment in a line: SEC.
The data set “SEC” deals with the molecule itself. The experiment in a line: SEC. In general terms: SEC sorts molecules by how far they enter the pores of the column.

Several values for one entry are separate records, joined by “and”; a condition that tells them apart may be missing. Equal entries are not always repeated.

As to “phage T4 gp16 oligomerization domain alone (N- and C-terminal domains deleted) (domain or fragment)”, in data set [1], the stoichiometry N was 11 and 12.

B1: phage T4 small terminase (TerS) gp16, wild type (natural protein, bacteriophage T4, UniProt P17311 1-164, looked up)
chain: MEGLDINKLLDISDLPGIDGEEIKVYEPLQLVEVKSNPQNRTPDLEDDYGVVRRNMHFQQQMLMDAAKIFLETAKNADSPRHMEVFATLMGQMTTTNREILKLHKDMKDITSEQVGTKGAVPTGQMNIQNATVFMGSPTELMDEIGDAYEAQEAREKVINGTTD
Regarding B1, the binding result in the data set “SEC” is given as “binds”.

B2: phage T4 gp16 mutant 3M (R98A, K102A, K108A) (natural protein, bacteriophage T4, UniProt P17311 1-164, looked up)
chain: MEGLDINKLLDISDLPGIDGEEIKVYEPLQLVEVKSNPQNRTPDLEDDYGVVRRNMHFQQQMLMDAAKIFLETAKNADSPRHMEVFATLMGQMTTTNAEILALHKDMADITSEQVGTKGAVPTGQMNIQNATVFMGSPTELMDEIGDAYEAQEAREKVINGTTD
For the molecule B2, the binding result in the data set “SEC” is given as “binds”.

B3: phage T4 gp16 mutant 4M (R98A, K102A, K105A, K108A) (natural protein, bacteriophage T4, UniProt P17311 1-164, looked up)
chain: MEGLDINKLLDISDLPGIDGEEIKVYEPLQLVEVKSNPQNRTPDLEDDYGVVRRNMHFQQQMLMDAAKIFLETAKNADSPRHMEVFATLMGQMTTTNAEILALHADMADITSEQVGTKGAVPTGQMNIQNATVFMGSPTELMDEIGDAYEAQEAREKVINGTTD
B3: the “stoichiometry N” value in “SEC” was about 6.

B4: phage T4 gp16 N-C fusion (amino acids 36-118 deleted; lacks helix alpha1 and helix alpha2) (natural protein, bacteriophage T4, UniProt P17311 1-164, looked up)
chain: MEGLDINKLLDISDLPGIDGEEIKVYEPLQLVEVKGAVPTGQMNIQNATVFMGSPTELMDEIGDAYEAQEAREKVINGTTD
As to B4, in the data set “SEC”, the “stoichiometry N” value was 2.

As a reminder, the stoichiometry N is the number of molecules, sites or subunits per partner or assembly.
